We go through four molecules from patent US20240269283A1 (NINGBO T MAXIMUM BIOPHARMACEUTICALS, published 2024).

One assay addresses T1, B7H3 on U251 cells (UniProt Q5ZPR3 29-534, limits assumed).
T1 construct: whole, on cells; also called U251 cells (expressing B7H3)
T1 sequence (looked up): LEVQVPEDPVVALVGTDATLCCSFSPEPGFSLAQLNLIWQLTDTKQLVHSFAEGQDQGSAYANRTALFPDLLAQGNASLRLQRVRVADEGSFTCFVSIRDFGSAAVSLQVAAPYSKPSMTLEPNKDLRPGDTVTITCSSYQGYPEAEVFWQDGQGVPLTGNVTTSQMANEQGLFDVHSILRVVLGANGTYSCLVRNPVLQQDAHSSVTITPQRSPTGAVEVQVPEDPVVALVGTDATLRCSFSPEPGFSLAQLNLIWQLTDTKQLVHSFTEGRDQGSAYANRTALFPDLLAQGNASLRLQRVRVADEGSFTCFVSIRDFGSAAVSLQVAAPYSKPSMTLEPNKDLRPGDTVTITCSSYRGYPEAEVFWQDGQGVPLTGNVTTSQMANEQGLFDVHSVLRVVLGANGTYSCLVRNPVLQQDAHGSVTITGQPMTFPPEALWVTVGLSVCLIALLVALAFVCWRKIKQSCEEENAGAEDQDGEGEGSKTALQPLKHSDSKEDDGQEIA
Nature of the assay: flow cytometry on U251 cells (expressing B7H3), MFI against antibody concentration. As for the experimental part: Recombinant antibodies with different concentrations were incubated with U251 cells (expressing B7H3), and the binding of the antibodies to the cell surface was assayed by the mean fluorescence intensity (MFI) of the cells. From the results shown in FIG. 2, the 1A5 and 1G7 antibodies and the humanized antibodies thereof can effectively bind to the surface of the U251 cells.

Assay [1] has as its target T2, B7H3-Fc recombinant protein (human, UniProt Q5ZPR3 29-461).
T2 construct: also called human B7H3 protein; not shown: Fc part of the B7H3-Fc recombinant protein
T2 sequence (looked up): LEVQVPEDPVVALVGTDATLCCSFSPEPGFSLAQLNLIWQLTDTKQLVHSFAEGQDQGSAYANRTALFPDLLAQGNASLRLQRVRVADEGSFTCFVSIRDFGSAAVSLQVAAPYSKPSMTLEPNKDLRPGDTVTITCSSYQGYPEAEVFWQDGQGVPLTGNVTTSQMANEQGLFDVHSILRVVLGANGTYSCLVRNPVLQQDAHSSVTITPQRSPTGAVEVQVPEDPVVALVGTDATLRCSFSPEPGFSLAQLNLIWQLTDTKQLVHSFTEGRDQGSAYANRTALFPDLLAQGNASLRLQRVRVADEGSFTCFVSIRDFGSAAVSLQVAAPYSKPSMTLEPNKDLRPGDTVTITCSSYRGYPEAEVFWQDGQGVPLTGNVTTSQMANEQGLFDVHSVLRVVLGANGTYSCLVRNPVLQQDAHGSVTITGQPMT
Nature of the assay: SPR, Biacore 8K, CM5 chip. As for the experimental part: The mouse anti-human IgG (Fc) antibody was diluted with the immobilization reagent (sodium acetate, pH 5.0): 950 μL of the immobilization reagent was added to 50 μL of the mouse anti-human IgG (Fc) antibody. The dilution was used for immobilization in eight channels. First, the surface of the CM5 chip was activated for 360 s with EDC and NHS at a flow rate of 10 μL/min. Then, the mouse anti-human IgG (Fc) antibody was injected into the channels (channels 1-8, Fc1,2) at a flow rate of 10 μL/min for about 360 s, with the level of immobilization at about 7000 to 14,000 RU. Finally, the chip was blocked with ethanolamine at 10 μL/min for 420 s.
The human B7H3 protein was diluted 2-fold with the running reagent. The diluted human B7H3 protein was injected into the experimental channels and the reference channels in sequence at a flow rate of 30 μL/min, and corresponding periods of association and dissociation were allowed. The association and dissociation steps were all performed in the running reagent. After each concentration analysis, the chip needed to be regenerated with magnesium chloride at a flow rate of 20 μL/min for 30 s to wash away the ligand and undissociated analyte. For the next concentration analysis, the experimental channels needed to recapture the same amount of ligand.
A KD value was calculated for each sample using Biacore 8K analysis software Biacore Insight Evaluation Software. The reference channels (Fc1) were used for background subtraction.

B1: hu1A5 (VHH)
VHH: QVQLVESGGGLVQPGGSLRLSCAASGRIFSNYSVGWFRQAPGKEREFVAAIIWSTGTTYYADSVKGRFTISRDNSKNTLYLQMNSLRAEDTAVYYCAASFKYSGIYGREADFGSWGQGTLVTVSS
notes: a member of the group m3 (humanized antibodies of 1A5 and 1G7); also called humanized antibody of 1A5
For B1, in the assay with B7H3 on U251 cells, the binding result is “binds”.

B2: hu1G7 (VHH)
VHH: AVQLVESGGGLVQPGGSLRLSCAASGRIFSNYAMGWFRQAPGKEREFVAAIIGSTGTVYYADSVKGRFTISRDNSKNTLYLQMNSLRAEDTAVYYCAASFRYSGIYGREADFVSWGQGTLVTVSS
notes: a member of the group m3 (humanized antibodies of 1A5 and 1G7); also called humanized antibody of 1G7
In the case of B2, the binding result with B7H3 on U251 cells is on record as “binds”.

B3: B7H3 single-domain antibody 1A5 (VHH)
VHH: QAQLVESGGGLVQTGGSLRLSCAASGRIFSNYSVGWFRQAPGKEREFVAAIIWSTGTTNLADPMKGRFTISRDNAKNTVVLQMNSLKPEDTAIYYCAASFKYSGIYGREADFGSWGQGTQVTVSS
notes: Called a single-domain antibody / recombinant antibody; also called 1A5 antibody; anti-B7H3 VHH antibody
In the case of B3, in assay [1], the Kd worked out at 7.39 nM, the koff amounted to 0.0045 s⁻¹ and the kon amounted to 609000 M⁻¹ s⁻¹. In the assay with B7H3 on U251 cells, the binding result is given as “binds”.

B4: B7H3 single-domain antibody 1G7 (VHH)
VHH: AVQLVESGGGLVQTGGSLRLSCADSGRIFSNYAMGWFRQAPGKEREFVAAIIGSTGTVNYADSMKGRFTISRDNAKNTVVLQMNSLKPEDTAIYYCAASFRYSGIYGREADFVSWGQGTQVTVSS
notes: Called a single-domain antibody / recombinant antibody; also called 1G7 antibody; anti-B7H3 VHH antibody
As for B4, in assay [1], the Kd was 5.38 nM, the koff amounted to 0.00618 s⁻¹ and the kon worked out at 1.15e+06 M⁻¹ s⁻¹. Further, in the assay with B7H3 on U251 cells, the “EC50 (read off the curve)” value is roughly 4 µg/mL.
